Changes are numbered by the printed parent chain. Names and notes keep the numbering of the source.

We go through 20 molecules from patent US20230039851A1 (ARO BIOTHERAPEUTICS, published 2023).

B1: A10V (designed binder)
chain: MLPAPKNLVVSRVTEDSARLSWTAPDAAFDSFNIAYWEPGIGGEAIWLRVPGSERSYDLTGLKPGTEYKVWIHGVKGGASSPPLIARFTT
notes: Variant of B7; also called B7 A10V; not shown: His tag: FN3 domains were purified as His-tagged proteins
B2: A10V, W71A (designed binder)
chain: B1 chain with W71A
notes: Variant of B7; not shown: His tag: FN3 domains were purified as His-tagged proteins
B3: A10V, P82A (designed binder)
chain: B1 chain with P82A
notes: as for B2
B4: A10V, G42A (designed binder)
chain: B1 chain with G42A
notes: as for B2
B5: A10V, H73A (designed binder)
chain: B1 chain with H73A
notes: as for B2
B6: A10V, S80A (designed binder)
chain: B1 chain with S80A
notes: as for B2
B7: B7 (designed binder)
chain: B1 chain with V10A
notes: FN3 domain (Tencon27-based library clone) expressed in E. coli; also called ALB40; not shown: His tag: FN3 domains were purified as His-tagged proteins
B8: A10V, G40A (designed binder)
chain: B1 chain with G40A
notes: as for B2
B9: A10V, A35S (designed binder)
chain: B1 chain with A35S
notes: as for B2
B10: A10V, P39A (designed binder)
chain: B1 chain with P39A
notes: as for B2
B11: A10V, K69A (designed binder)
chain: B1 chain with K69A
notes: as for B2
B12: A10V, A79S (designed binder)
chain: B1 chain with A79S
notes: as for B2
B13: A10V, W37A (designed binder)
chain: B1 chain with W37A
notes: as for B2
B14: A10V, N33A (designed binder)
chain: B1 chain with N33A
notes: as for B2
B15: A10V, I85A (designed binder)
chain: B1 chain with I85A
notes: as for B2
B16: A10V, W47A (designed binder)
chain: B1 chain with W47A
notes: as for B2
B17: A10V, I41A (designed binder)
chain: B1 chain with I41A
notes: as for B2
B18: A10V, R49A (designed binder)
chain: B1 chain with R49A
notes: as for B2
B19: A10V, R87A (designed binder)
chain: B1 chain with R87A
notes: as for B2
B20: wt Tencon (designed binder)
chain: LPAPKNLVVSEVTEDSLRLSWTAPDAAFDSFLIQYQESEKVGEAINLTVPGSERSYDLTGLKPGTEYTVSIYGVKGGHRSNPLSAEFTT
notes: also called wild type tencon

T1 sequence (A2V9Z4 25-608 limits assumed): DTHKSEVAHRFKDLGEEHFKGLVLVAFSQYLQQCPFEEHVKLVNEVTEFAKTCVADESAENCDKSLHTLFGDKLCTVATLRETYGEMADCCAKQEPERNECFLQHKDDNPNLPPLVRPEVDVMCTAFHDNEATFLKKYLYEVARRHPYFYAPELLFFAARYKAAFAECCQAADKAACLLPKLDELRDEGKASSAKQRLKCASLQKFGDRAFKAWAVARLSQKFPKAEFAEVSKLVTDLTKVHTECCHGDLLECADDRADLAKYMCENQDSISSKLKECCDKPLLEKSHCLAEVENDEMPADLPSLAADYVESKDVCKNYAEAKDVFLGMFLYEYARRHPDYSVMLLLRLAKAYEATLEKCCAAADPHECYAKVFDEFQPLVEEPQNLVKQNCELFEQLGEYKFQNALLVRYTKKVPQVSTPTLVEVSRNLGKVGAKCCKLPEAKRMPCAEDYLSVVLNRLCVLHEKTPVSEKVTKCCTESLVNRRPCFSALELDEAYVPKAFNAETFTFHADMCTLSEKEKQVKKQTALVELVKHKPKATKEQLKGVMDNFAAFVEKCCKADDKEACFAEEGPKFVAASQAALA

One experiment concerns the target T1, Cynomolgus Serum Albumin (cynomolgus monkey, UniProt A2V9Z4 25-608).
T1 construct: ELISA: albumin coated on plates; pull-down: endogenous albumin in cynomolgus serum; also called cSA; Cyno SA
Briefly: ELISA, 667 nM FN3 protein on immobilized cynomolgus albumin. As for the experimental part:
(§1) The FN3 proteins were also tested in an ELISA assay to determine their ability to bind to immobilized human or cynomolgous albumin. The binding of 667 nM B7 and B7 variants to human or cynomolgous albumin are illustrated in Table 7. The negative control is wt Tencon.
For the molecule B1, the “Cyno Albumin (RLU)” value came to 43600 RLU.
For B2, the “Cyno Albumin (RLU)” value amounted to 1600 RLU.
On the same count and under the same terms, to B3 belongs 24100 RLU.
Regarding B4, the “Cyno Albumin (RLU)” value was 9180 RLU.
On to B5, for which the “Cyno Albumin (RLU)” value turned out to be 600 RLU.
Take B6: the “Cyno Albumin (RLU)” value is 2950 RLU.
On the same count and under the same terms, the result for B7 reads 145000 RLU.
On the same count and under the same terms, to B8 belongs 64400 RLU.
Same read-out and setting: to B9 belongs 2950 RLU; to B10, 73600 RLU.
Turning to B11, the “Cyno Albumin (RLU)” value stood at 42300 RLU.
B12 gave a Cyno Albumin (RLU) of 9200 RLU.
Turning to B13, the “Cyno Albumin (RLU)” value worked out at 500 RLU.
Turning to B14, the “Cyno Albumin (RLU)” value was 1500 RLU.
Still for that read-out and setting: the result for B15 reads 2500 RLU.
As to B16, the “Cyno Albumin (RLU)” value is 2000 RLU.
B17: the “Cyno Albumin (RLU)” value was found to be 46200 RLU.
On the same count and under the same terms, the result for B18 reads 1150 RLU; that for B19, 66300 RLU; that for B20, 775 RLU.

The target in the next experiment is T2, Human Serum Albumin (human, UniProt P02768 25-609).
T2 construct: ELISA: albumin coated on plates; pull-down: endogenous albumin in normal human serum; also called HSA; Human SA
T2 sequence (P02768 25-609 limits assumed): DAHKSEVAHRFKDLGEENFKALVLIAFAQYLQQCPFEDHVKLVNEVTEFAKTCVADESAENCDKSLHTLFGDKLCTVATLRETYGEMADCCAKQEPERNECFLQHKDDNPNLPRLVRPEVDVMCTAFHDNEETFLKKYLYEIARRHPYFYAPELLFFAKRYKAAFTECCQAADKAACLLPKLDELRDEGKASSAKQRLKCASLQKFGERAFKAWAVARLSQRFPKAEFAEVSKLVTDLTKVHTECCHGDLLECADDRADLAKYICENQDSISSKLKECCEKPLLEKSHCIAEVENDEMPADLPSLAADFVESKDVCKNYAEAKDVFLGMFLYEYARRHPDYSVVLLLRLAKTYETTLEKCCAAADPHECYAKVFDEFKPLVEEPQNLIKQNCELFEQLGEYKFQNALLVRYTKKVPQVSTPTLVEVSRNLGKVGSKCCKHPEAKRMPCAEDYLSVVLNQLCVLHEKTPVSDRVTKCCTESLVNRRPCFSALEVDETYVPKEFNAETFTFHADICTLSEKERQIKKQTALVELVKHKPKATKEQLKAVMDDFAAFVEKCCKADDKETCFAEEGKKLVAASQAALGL
Briefly: ELISA, 667 nM FN3 protein on immobilized human albumin. How it is done: as §1
A general note: An ELISA detects its analyte on a solid surface through an enzyme-linked reagent.
Take B1: the “Human Albumin (RLU)” value is 23100 RLU.
For the molecule B2, the “Human Albumin (RLU)” value was determined as 950 RLU.
As for B3, the “Human Albumin (RLU)” value was 21700 RLU.
B4: the “Human Albumin (RLU)” value stood at 4480 RLU.
For the molecule B5, the “Human Albumin (RLU)” value was found to be 550 RLU.
Still for that read-out and setting: to B6 belongs 2950 RLU; to B7, 97400 RLU; to B8, 69800 RLU.
Regarding B9, the “Human Albumin (RLU)” value is 2950 RLU.
As to B10, the “Human Albumin (RLU)” value turned out to be 107000 RLU.
In the case of B11, the “Human Albumin (RLU)” value was 15900 RLU.
On to B12, for which the “Human Albumin (RLU)” value came to 250 RLU.
B13: the “Human Albumin (RLU)” value is 600 RLU.
B14: the “Human Albumin (RLU)” value was found to be 2350 RLU.
B15: the “Human Albumin (RLU)” value came to 1000 RLU.
Consider B16, for which the “Human Albumin (RLU)” value is 2100 RLU.
The same measure, in the same setting: the result for B17 reads 50600 RLU; that for B18, 1020 RLU.
For B19, the “Human Albumin (RLU)” value amounted to 47400 RLU.
On to B20, for which the “Human Albumin (RLU)” value amounted to 8350 RLU.

The target of the next experiment is T1, Cynomolgus Serum Albumin. Briefly: pull-down of endogenous albumin from cynomolgus serum.
B2: the binding result is listed as “no binding”.
The same measure, in the same setting: the result for B5 reads “no binding”.
Turning to B13, the binding result was “no binding”.
On the same count and under the same terms, the result for B14 reads “no binding”; that for B15, “no binding”.
B16: the binding result is recorded as “no binding”.

Another experiment concerns the target T2, Human Serum Albumin. Briefly: ELISA on immobilized human albumin. As for the experimental part:
as §1
As for B20, the binding result is on record as “no binding (tested: 667 nM)”.

The target in a further experiment is T2, Human Serum Albumin. Put plainly: pull-down of endogenous albumin from human serum.
Consider B2, for which the binding result is reported as “no binding”.
Turning to B5, the binding result is reported as “no binding”.
Same read-out and setting: the result for B12 reads “no binding”; that for B13, “no binding”.
For the molecule B14, the binding result is listed as “no binding”.
The same measure, in the same setting: to B15 belongs “no binding”; to B16, “no binding”.

The target in another experiment is T1, Cynomolgus Serum Albumin. Put plainly: ELISA on immobilized cynomolgus albumin. As for the experimental part:
as §1
In the case of B20, the binding result is “no binding (tested: 667 nM)”.
